Assay: Differential scanning calorimetry of peptide and particles
Format: physicochemical
Conditions: normal saline, peptide 1.11 mg/ml, scanned 20° C. to 130° C.
Protocol: Differential scanning calorimetry is used to study the unfolding events associated with the peptide and particles. This technique is used to measure the amount of heat required to increase the temperature of the sample and reference, resulting in peaks at phase transition temperatures at which more heat is required by the samples to be maintained at the same temperature as the reference. In case of proteins the melting temperatures are determined at which half of the protein exists in an unfolded state.
The peptide of SEQ ID NO: 1 is used to form particles at peptide to lipid (POPC) molar ratios of 1:1.75, 1:3 and 1:7, the particles with peptide at concentration of 1.11 mg/ml and lipid at 0.55 mg/ml are used. The peptide alone and lipid alone are used as controls and the samples are scanned from 20° C. to 130° C.

Sequence “DWLKAFYDKVAEKLKEAFLA [peptide SEQ ID NO: 1, amphipathic peptide]” has a phase transition of 50 °C.

Source: patent US20110250237A1, “IMMUNOGENIC AMPHIPATHIC PEPTIDE COMPOSITIONS” (priority 2008, published 2011)
